{
  "source": "paper PMC12505966",
  "about": "“Soluble MFGE8 mediates cell entry of Crimean-Congo hemorrhagic fever virus” (mBio, 2025)",
  "binders": {"B1": {"name": "Human recombinant MFGE8 protein with His tag at the C-terminus (natural protein, UniProt Q08431 24-387, looked up)", "chain": "LDICSKNPCHNGGLCEEISQEVRGDVFPSYTCTCLKGYAGNHCETKCVEPLGLENGNIANSQIAASSVRVTFLGLQHWVPELARLNRAGMVNAWTPSSNDDNPWIQVNLLRRMWVTGVVTQGASRLASHEYLKAFKVAYSLNGHEFDFIHDVNKKHKEFVGNWNKNAVHVNLFETPVEAQYVRLYPTSCHTACTLRFELLGCELNGCANPLGLKNNSIPDKQITASSSYKTWGLHLFSWNPSYARLDKQGNFNAWVAGSYGNDQWLQVDLGSSKEVTGIITQGARNFGSVQFVASYKVAYSNDSANWTEYQDPRTGSSKIFPGNWDNHSHKKNLFETPILARYVRILPVAWHNRIALRLELLGC", "notes": "also called milk fat globule-EGF factor 8 protein; lactadherin; not shown: His tag, C-terminal, kept"}},
  "molecular_target": "T1, CCHFV Gc monomer (Gc10200 aa 1,041-1,579, Strep-Tag II) (Crimean-Congo hemorrhagic fever virus, …, UniProt Q8JSZ3 1041-1579)",
  "T1 construct": "also called Gc protein; recombinant Gc monomer",
  "T1 sequence": "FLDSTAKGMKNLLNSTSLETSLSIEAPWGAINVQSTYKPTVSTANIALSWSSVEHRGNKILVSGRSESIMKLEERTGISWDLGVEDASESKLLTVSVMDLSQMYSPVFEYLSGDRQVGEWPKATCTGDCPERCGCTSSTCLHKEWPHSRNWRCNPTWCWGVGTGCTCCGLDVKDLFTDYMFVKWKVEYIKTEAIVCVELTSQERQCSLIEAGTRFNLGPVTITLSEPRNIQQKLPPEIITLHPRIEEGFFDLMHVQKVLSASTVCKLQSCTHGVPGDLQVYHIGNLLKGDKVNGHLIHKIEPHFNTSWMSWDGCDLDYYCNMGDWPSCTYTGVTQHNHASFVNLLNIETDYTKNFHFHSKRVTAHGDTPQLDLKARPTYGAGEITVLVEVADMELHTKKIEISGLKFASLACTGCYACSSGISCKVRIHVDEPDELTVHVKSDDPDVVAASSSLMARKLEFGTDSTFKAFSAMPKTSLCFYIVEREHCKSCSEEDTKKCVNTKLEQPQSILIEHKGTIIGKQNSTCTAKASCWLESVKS",
  "test": "BLI; ForteBio Octet Red; […] (15 µg/mL) […]; PBS with 0.02% Tween 20 and 0.1% BSA; 1/1 binding model",
  "conditions": "both partners purified",
  "data": [
    {"binder": "B1", "values": [
      {"measurement": "Kd", "result": "< 1", "unit": "pM"}
    ]}
  ]
}
